# How the values were obtained:
# Assay in all cases: other fluorescence titration
# H3K4ac peptide = target: H3K4ac peptide
# H3K4me3 peptide = target: H3K4me3 peptide
# [1] = target: unmodified H3 (aa 1–12) peptide (UniProt P68431)
substance,measurement,setting,value
ZZEF1ZZ2 with H1877 replaced by tryptophan (for tryptophan fluorescence) (domain or fragment),Kd,H3K4ac peptide,11 µM
same,Kd,H3K4me3 peptide,4.8 µM
same,Kd,[1],4.3 µM

# — article PMC8133392
